Experimental findings from patent publication US20130136748A1 (Ablynx, published 2013) are described below.

Experiment [1] has as its target T1, human HER1 (human, UniProt P00533 25-1210).
T1 construct: also called EGFR; ErbB1
Put plainly: FACS, CHO-HER1.

The target of experiment [2] is T2, human HER2 (human, UniProt P04626 23-1255).
T2 construct: also called hHER2
Put plainly: FACS, CHO-HER2. In general terms: In flow cytometry, cells or beads pass a laser one at a time.

Experiment [3] concerns the target T3, human HER4 (human, UniProt Q15303 26-1308). Put plainly: FACS, CHO-HER4.
For experiment [4], the target named is T1, human HER1. Put plainly: FACS CHO-HER1, 222 nM.
For experiment [5], the target named is T1, human HER1. Put plainly: FACS CHO-HER1, 667 nM.
The target of experiment [6] is T2, human HER2. Put plainly: FACS CHO-HER2, 222 nM.
For experiment [7], the target named is T2, human HER2. Put plainly: FACS CHO-HER2, 667 nM.
For experiment [8], the target named is T3, human HER4. Put plainly: FACS CHO-HER4, 222 nM.
Experiment [9] deals with T3, human HER4. Put plainly: FACS CHO-HER4, 667 nM.
Experiment [10] addresses T1, human HER1. Put plainly: FACS CHO-HER1, 2000 nM.
Experiment [11] concerns the target T2, human HER2. Put plainly: FACS CHO-HER2, 2000 nM.
Experiment [12] addresses T3, human HER4. Put plainly: FACS CHO-HER4, 2000 nM.
For experiment [13], the target named is T4, hHER3 full length (human, UniProt P21860 20-1342). Put plainly: cell-based or functional assay.
The target of experiment [14] is T4, hHER3 full length. Put plainly: cell-based or functional assay. The source holds these as a separate data set.
The target of experiment [15] is T5, hHER3 ECD (human HER3 extracellular domain) (human, UniProt P21860 20-643).
T5 construct: also called recombinant HER3-ECD
Put plainly: ELISA, coated hHER3-ECD.

Experiment [16] has as its target T6, cHER3ECD (Maccaca fascicularis HER3 extracellular domain) (Macaca fascicularis, UniProt P21860 20-643 (human entry)).
T6 construct: also called cyno HER3ECD; cyno HER3-ECD
T6 chain: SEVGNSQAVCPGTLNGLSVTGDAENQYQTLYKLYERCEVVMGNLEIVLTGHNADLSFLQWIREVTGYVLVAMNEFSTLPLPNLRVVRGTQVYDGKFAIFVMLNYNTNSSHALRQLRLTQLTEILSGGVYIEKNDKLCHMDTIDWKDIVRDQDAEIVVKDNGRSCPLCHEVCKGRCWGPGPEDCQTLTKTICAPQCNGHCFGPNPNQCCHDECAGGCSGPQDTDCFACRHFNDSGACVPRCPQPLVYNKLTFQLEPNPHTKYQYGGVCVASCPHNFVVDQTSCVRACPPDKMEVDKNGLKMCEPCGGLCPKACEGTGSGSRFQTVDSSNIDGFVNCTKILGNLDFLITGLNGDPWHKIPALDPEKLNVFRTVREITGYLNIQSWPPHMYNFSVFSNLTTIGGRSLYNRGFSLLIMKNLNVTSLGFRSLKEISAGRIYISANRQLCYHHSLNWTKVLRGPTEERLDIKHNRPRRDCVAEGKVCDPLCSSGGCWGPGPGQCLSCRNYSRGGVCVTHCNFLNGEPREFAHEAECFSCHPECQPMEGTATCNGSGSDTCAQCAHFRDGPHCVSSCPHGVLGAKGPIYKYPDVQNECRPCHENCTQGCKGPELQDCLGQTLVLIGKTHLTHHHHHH
Put plainly: ELISA, coated cHER3-ECD. For orientation: An ELISA detects its analyte on a solid surface through an enzyme-linked reagent.

Experiment [17] deals with T7, Chicken Her3 (AA1-25 human, AA26-642 chicken) (chicken (human signal sequence)).
T7 construct: Transmembrane and extracellular regions only, on transiently transfected HEK293 cells; also called full length extracellular chicken HER3
T7 chain: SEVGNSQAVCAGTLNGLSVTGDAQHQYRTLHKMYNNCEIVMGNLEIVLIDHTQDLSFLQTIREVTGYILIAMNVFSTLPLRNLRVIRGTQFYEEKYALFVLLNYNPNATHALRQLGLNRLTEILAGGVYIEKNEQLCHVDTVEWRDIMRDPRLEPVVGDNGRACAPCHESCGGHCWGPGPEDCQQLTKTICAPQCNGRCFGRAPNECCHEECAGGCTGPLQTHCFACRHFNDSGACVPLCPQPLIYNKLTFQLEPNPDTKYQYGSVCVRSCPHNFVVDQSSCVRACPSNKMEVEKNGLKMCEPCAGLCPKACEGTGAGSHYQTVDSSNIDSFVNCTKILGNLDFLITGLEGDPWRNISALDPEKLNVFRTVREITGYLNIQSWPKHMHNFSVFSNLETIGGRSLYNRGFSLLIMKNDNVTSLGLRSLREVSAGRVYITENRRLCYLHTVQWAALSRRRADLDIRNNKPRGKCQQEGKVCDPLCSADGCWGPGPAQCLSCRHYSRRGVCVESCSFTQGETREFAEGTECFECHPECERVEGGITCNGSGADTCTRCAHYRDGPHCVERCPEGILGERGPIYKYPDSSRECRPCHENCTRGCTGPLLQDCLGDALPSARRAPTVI
Put plainly: FACS, HEK293 with chicken HER3.

Experiment [18] deals with T8, human HER3-Fc (R&D Systems, 348-RB) (human, UniProt P21860 20-643).
T8 construct: Bought; also called hHER3-Fc; Fc-HER3; Fc part of the bought chimera not given, not described
Put plainly: SPR, HER3-Fc captured by anti-Fc. For orientation: Surface plasmon resonance follows binding to a sensor surface in real time, without labels.

Experiment [19] deals with T4, hHER3 full length. Put plainly: FACS, 400 nM, competitor 04C07-biotin.
The target in experiment [20] is T4, hHER3 full length. Put plainly: FACS, 400 nM, competitor 04F10-biotin.
Experiment [21] addresses T4, hHER3 full length. Put plainly: FACS, 400 nM, competitor 17C08-biotin.
In experiment [22] the target is T4, hHER3 full length. Put plainly: FACS, 400 nM, competitor 18E08-biotin.
For experiment [23], the target named is T4, hHER3 full length. Put plainly: FACS, 400 nM, competitor 21B02-biotin.
The target of experiment [24] is T4, hHER3 full length. Put plainly: FACS, 400 nM, competitor 23F05-biotin.
Experiment [25] concerns the target T4, hHER3 full length. Put plainly: FACS competition with HRG1-β1-EGF, CHO-HER3.
Experiment [26] deals with T5, hHER3 ECD (human HER3 extracellular …). Put plainly: SPR off rate.
Experiment [27] deals with T8, human HER3-Fc (R&D Systems, 348-RB). Put plainly: 18G11 competition alphascreen.
For experiment [28], the target named is T4, hHER3 full length. Put plainly: cell-based or functional assay. This is another data set of the same source.
The target of experiment [29] is T8, human HER3-Fc (R&D Systems, 348-RB). Put plainly: HRG competition alphascreen.

T3 sequence (Q15303 26-1308 limits assumed): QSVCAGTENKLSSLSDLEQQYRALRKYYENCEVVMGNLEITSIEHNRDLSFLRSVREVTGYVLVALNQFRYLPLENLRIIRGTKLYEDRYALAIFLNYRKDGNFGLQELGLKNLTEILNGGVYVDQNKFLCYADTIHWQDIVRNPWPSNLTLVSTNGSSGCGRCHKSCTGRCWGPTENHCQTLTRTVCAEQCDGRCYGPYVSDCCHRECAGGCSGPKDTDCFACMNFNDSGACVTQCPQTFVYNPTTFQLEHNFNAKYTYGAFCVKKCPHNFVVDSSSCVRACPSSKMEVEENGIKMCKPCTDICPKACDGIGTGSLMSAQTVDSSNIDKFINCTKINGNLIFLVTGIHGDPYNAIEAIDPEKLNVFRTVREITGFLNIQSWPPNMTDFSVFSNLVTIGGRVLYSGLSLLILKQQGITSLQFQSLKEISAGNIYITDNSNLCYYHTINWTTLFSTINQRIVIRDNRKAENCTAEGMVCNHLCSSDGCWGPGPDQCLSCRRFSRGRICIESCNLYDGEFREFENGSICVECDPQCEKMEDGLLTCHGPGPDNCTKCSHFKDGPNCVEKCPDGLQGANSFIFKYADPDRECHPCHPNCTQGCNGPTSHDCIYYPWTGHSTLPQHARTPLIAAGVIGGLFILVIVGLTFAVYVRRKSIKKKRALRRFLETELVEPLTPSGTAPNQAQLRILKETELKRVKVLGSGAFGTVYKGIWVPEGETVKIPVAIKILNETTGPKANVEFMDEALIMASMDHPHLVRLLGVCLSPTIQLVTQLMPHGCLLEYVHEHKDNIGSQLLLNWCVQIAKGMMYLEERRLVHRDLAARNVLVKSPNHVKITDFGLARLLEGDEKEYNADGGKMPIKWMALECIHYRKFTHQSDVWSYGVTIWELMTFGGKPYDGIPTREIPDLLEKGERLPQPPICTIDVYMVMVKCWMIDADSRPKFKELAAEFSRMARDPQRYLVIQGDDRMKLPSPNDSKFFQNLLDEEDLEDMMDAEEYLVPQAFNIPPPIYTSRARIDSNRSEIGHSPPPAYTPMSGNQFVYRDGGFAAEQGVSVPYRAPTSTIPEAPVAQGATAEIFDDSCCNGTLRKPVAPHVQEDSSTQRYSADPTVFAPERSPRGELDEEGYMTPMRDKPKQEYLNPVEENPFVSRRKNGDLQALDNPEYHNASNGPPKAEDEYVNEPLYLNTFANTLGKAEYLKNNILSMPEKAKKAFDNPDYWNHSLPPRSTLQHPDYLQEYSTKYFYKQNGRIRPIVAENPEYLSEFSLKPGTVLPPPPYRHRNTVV

B1: 23F05 (VHH)
VHH: EVQLVESGGGLVQAGGSLRLSCAASGFTFDGYAIGWFRQAPGKEREGVSCISGGDGRSYYADSVKGRFTVSSDNAKNTLYLEMNSLKPEDTAVYYCAVIWGPYCSDSYEYLYEYDYWGQGTQVTVSS
With B1, the binding result in the experiment with human HER1 [1] is recorded as “no binding (tested: 2000 nM)”; in the experiment with human HER2 [2] it was “no binding (tested: 2000 nM)”; with human HER4 [3] it was “no binding (tested: 2000 nM)”; in [17] it was “binds”. Further, the MCF was 153 with human HER1 [4]; 67 with human HER1 [5]; 97 with human HER2 [6]; 264 in the experiment with human HER2 [7]; 343 in the experiment with human HER4 [8]; 101 with human HER4 [9]. Moreover, the MCF in the experiment with human HER1 [10] stood at 67; with human HER2 [11], 832; in the experiment with human HER4 [12] it was 95. Moreover, the “IC50, HRG1-β1 induced pHER3, MCF-7” value with hHER3 full length [13] is 1.77e-08 M. Besides, the “IC50, HRG1-β1 induced pHER3, MDA-MB468” value with hHER3 full length [13] came out at 2.41e-08 M. The “IC50, HRG1-β1 induced pAkt, MCF-7” value with hHER3 full length [14] was 4.65e-08 M. The “inhibition of HRG1-β1 induced pERK1/2, MCF-7” value with hHER3 full length [14] was less than 50 % inhibition. The figures for the EC50 in experiment [15] and in experiment [16] were 0.46 nM and 0.44 nM, respectively. In addition, the Kd in [18] is 0.99 nM. Further, the kon in experiment [18] was 3.1e+06 M⁻¹ s⁻¹. In addition, the “% competition” value is 6% with hHER3 full length [19]; 15% with hHER3 full length [20]; 8% with hHER3 full length [21]; 16% in the experiment with hHER3 full length [22]; 100% in the experiment with hHER3 full length [23]; 100% with hHER3 full length [24]. The IC50 with hHER3 full length [25] amounted to 9.44 nM.

B2: HER3MS00125 (VHH)
VHH: EVQLVESGGGLVQPGGSLRLSCAASGTLFKINAMGWYRQAPGKQRELVALITSSDTTDYAEDVKGRFTISRDNSWNTVYLQMNSLRPEDTAVYYCHSDHYSLGVPEKRVILYGQGTLVTVSS
notes: 18G11 second round variant with R44Q
On to B2, for which the koff in experiment [26] turned out to be 0.0012 s⁻¹. In experiment [27], this molecule gave a half-maximal inhibitory concentration (IC50) of 14 nM.

B3: 21B02 (VHH)
VHH: EVQLVESGGGLVQPGGSLRLSCAASGFTFDYYTIGWFRQAPGKEREGVSCISSRDGDSYYADSVKGRFTISRDNAKNTAYLQMNSLKPEDTAVYYCAASASDYGLGLELFHDEYNYWGQGTQVTVSS
On to B3, for which the binding result with human HER1 [1] is “no binding (tested: 2000 nM)”; with human HER4 [3] it was “no binding (tested: 2000 nM)”; in experiment [17], “binds”. The MCF in the experiment with human HER1 [4] worked out at 64; with human HER1 [5] it was 64; with human HER2 [6] it was 1340; with human HER2 [7], 3610; in the experiment with human HER4 [8], 91; with human HER4 [9], 119. Also, the MCF with human HER1 [10] came to 53; with human HER2 [11], 8570; in the experiment with human HER4 [12], 273. The “IC50, HRG1-β1 induced pHER3, MCF-7” value with hHER3 full length [13] came out at 4.88e-08 M. For the same molecule, in the experiment with hHER3 full length [13], the “IC50, HRG1-β1 induced pHER3, MDA-MB468” value was determined as 9.99e-08 M. Further, the “IC50, HRG1-β1 induced pAkt, MCF-7” value in the experiment with hHER3 full length [14] was 6.9e-08 M. In addition, the “inhibition of HRG1-β1 induced pERK1/2, MCF-7” value with hHER3 full length [14] is less than 50 % inhibition. Besides, the EC50 is 1.1 nM in experiment [15] and 0.9 nM in [16]. In addition, the Kd in experiment [18] is 1.22 nM. The same molecule had a kon in experiment [18] of 2.2e+06 M⁻¹ s⁻¹. In addition, the “% competition” value in the experiment with hHER3 full length [19] came to 10%; in the experiment with hHER3 full length [20], 15%; with hHER3 full length [21] it was 17%; with hHER3 full length [22] it was 20%; in the experiment with hHER3 full length [23] it was 100%; in the experiment with hHER3 full length [24] it was 98%. Moreover, in the experiment with hHER3 full length [25], the IC50 was 13.3 nM.

B4: HER3MS00049 (VHH)
VHH: EVQLVESGGGLVQPGGSLRLSCAASGRTYYLNAMGWFRQAPGKEREFVAAIDWSDGNKDYADSVKGRFTISRDNSKNTVYLQMNSLRPEDTAVYYCAADTPPWGPMIYIESYDSWGQGTLVTVSS
notes: 21F06 basic + G40A + D44E; also called HER3MS0049
B4: the “IC50 pHER3, HRG1-β1 stimulated MCF7” value with hHER3 full length [28] came out at 2.79e-09 M. Moreover, in experiment [29], the IC50 is 0.25 nM.

One may read the EC50 as the midpoint of the concentration-response curve. The Kd is the constant that tells how readily two partners part at equilibrium. High values mean a looser complex, low ones a tighter complex. One may read the kon as the rate constant with which the complex forms. The low end stands for slower complex formation, the high end for faster complex formation. In general, IC50 refers to the concentration at which inhibition is half-maximal. A low value points to greater potency. Usually koff stands for the first-order rate constant of dissociation.
